Targets include Aurora-B(h) (human, UniProt Q96GD4 1-344); BTK(h) (human, UniProt Q06187 1-659); MSSK1(h) (human, UniProt Q9UPE1 1-567, limits assumed); DAPK1(h) (human, UniProt P53355 1-363, limits assumed); CHK2(h) (human, UniProt O96017 5-543, limits assumed); JNK1α1(h) (human, UniProt P45983-2 1-384); GSK3α(h) (human, UniProt P49840 1-483); Met(M1268T)(h) (human, UniProt P08581-2 974-1408, limits assumed); AMPKα1(h) (human, UniProt Q13131 1-559); Yes(h) (human, UniProt P07947 1-543).

Holding throughout (test): cell-based or functional assay
The target in the next test is T1, Txk(h) (human, UniProt P42681 1-527, limits assumed).
T1 sequence (looked up): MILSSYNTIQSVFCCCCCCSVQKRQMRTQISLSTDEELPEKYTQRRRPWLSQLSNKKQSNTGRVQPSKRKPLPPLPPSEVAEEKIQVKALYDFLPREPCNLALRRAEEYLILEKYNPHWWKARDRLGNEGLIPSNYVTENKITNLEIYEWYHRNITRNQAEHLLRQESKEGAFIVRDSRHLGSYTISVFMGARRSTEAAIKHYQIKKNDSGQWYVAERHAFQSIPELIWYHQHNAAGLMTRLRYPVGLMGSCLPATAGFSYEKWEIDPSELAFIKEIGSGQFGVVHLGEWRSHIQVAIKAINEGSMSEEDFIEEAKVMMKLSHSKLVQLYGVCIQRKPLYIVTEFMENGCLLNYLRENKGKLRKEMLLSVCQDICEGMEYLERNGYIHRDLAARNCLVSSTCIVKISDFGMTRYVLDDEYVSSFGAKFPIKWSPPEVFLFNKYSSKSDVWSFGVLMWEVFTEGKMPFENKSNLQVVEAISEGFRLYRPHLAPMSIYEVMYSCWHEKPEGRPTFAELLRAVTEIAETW

The target in a further test is T2, MKK7β(h) (human, UniProt O14733 1-419, limits assumed).
T2 sequence (looked up): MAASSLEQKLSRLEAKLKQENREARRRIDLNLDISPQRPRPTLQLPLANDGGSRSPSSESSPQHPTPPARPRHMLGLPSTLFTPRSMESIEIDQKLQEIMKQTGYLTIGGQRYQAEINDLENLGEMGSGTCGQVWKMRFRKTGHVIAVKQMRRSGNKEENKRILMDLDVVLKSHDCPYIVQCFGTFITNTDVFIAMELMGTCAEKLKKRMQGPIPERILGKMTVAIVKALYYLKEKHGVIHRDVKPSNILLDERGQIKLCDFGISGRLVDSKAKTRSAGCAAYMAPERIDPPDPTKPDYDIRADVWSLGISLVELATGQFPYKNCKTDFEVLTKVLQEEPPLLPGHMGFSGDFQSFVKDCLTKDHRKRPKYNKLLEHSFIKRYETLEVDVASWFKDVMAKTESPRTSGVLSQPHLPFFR

The target in the next test is T3, SAPK4(h) (human, UniProt O15264 1-365).
T3 sequence (looked up): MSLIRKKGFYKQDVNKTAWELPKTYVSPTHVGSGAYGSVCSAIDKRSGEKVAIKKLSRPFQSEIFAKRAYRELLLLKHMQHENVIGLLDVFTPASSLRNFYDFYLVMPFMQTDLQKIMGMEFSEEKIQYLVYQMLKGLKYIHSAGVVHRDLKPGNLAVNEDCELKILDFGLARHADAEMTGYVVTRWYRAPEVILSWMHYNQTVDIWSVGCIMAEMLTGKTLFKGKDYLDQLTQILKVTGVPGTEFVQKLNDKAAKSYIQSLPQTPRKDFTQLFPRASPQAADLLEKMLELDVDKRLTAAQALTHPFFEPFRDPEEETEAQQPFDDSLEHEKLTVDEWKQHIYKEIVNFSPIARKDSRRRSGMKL

In another test the target is T4, Aurora-A(h) (human, UniProt O14965 1-403).
T4 sequence (looked up): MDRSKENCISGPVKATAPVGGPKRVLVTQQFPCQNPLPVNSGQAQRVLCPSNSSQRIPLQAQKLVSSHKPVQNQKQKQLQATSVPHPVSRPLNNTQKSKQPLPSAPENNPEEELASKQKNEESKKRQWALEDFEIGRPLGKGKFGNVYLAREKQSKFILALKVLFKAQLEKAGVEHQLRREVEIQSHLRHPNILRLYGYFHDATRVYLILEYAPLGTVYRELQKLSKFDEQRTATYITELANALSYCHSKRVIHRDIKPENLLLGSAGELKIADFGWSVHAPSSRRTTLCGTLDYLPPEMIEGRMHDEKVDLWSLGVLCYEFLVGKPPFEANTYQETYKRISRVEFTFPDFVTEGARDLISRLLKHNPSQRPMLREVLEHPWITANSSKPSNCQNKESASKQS

The next test concerns the target T5, EphA1(h) (human, UniProt P21709 569-976, limits assumed).
T5 sequence (looked up): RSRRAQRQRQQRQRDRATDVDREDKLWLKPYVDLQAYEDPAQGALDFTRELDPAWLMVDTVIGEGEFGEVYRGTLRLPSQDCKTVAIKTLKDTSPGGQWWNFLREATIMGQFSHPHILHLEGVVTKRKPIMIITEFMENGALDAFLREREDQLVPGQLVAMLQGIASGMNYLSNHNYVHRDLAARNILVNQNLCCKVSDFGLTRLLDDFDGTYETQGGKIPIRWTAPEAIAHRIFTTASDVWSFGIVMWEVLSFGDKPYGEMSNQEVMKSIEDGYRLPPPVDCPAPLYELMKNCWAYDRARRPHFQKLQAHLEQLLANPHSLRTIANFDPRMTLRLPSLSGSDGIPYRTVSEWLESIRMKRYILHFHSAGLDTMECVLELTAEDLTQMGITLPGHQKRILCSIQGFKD

Chain of Aurora-B(h) (Q96GD4 whole entry): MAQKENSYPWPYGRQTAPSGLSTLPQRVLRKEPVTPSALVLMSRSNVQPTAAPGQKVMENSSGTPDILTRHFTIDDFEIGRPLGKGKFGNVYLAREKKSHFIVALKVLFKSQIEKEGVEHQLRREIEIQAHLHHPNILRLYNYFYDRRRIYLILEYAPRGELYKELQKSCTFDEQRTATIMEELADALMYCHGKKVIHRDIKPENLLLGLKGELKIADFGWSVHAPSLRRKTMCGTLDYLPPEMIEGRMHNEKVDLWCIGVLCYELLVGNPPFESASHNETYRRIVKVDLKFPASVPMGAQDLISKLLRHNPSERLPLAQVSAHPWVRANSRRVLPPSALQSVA
Chain of DAPK1(h) (P53355 1-363 limits assumed): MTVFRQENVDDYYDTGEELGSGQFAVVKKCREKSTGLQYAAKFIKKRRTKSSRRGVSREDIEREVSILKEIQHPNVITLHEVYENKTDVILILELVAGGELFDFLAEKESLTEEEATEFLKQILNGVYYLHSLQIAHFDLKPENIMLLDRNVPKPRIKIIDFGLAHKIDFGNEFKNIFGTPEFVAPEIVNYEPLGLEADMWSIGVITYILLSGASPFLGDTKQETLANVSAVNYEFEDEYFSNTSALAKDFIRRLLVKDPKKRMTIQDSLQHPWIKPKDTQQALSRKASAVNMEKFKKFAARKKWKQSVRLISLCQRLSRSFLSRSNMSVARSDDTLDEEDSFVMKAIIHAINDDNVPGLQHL
Chain of CHK2(h) (O96017 5-543 limits assumed): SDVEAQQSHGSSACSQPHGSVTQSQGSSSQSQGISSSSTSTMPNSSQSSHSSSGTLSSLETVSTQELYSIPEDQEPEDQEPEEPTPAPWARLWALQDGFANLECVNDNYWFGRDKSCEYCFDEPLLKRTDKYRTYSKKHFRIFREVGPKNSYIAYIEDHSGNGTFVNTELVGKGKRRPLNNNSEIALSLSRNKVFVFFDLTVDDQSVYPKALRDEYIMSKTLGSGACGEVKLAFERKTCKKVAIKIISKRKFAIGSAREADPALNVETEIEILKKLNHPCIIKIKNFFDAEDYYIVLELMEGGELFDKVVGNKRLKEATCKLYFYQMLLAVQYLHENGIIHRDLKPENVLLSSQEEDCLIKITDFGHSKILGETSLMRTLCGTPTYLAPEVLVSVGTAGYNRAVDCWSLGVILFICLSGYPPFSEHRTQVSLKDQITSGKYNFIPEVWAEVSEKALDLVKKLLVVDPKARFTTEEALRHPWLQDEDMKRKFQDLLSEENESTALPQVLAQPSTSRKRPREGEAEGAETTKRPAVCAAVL
Chain of MSSK1(h) (Q9UPE1 whole entry): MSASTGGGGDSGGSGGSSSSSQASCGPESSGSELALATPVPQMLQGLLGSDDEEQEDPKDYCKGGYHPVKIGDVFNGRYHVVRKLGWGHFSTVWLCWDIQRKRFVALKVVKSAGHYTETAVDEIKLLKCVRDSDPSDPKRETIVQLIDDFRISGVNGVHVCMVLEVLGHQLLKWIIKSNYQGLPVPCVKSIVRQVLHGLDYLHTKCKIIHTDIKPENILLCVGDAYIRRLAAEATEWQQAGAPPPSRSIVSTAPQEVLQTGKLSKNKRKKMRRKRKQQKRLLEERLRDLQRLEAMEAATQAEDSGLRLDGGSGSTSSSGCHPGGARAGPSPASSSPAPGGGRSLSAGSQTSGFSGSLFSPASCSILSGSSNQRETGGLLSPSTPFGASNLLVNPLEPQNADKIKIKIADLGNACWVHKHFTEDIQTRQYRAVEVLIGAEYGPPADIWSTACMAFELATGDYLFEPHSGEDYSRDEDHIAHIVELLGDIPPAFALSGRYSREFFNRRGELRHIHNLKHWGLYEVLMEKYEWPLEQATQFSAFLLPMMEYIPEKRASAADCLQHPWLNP
Chain of Yes(h) (P07947 whole entry): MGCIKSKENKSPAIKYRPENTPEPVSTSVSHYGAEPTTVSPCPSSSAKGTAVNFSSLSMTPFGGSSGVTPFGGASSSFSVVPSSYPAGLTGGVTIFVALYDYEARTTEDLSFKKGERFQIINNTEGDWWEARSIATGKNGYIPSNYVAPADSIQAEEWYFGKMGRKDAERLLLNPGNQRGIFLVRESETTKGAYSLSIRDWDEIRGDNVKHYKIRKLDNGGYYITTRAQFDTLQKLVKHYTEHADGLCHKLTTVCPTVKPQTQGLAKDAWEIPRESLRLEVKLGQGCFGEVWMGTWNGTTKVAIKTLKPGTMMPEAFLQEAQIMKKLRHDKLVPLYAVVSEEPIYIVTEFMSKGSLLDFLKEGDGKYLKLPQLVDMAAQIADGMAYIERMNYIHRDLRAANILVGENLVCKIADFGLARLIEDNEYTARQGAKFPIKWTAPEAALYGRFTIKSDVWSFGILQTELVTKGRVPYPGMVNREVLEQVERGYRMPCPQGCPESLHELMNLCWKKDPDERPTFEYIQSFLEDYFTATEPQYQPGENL
Chain of JNK1α1(h) (P45983 other isoform, or with tags, fused parts or gaps limits assumed): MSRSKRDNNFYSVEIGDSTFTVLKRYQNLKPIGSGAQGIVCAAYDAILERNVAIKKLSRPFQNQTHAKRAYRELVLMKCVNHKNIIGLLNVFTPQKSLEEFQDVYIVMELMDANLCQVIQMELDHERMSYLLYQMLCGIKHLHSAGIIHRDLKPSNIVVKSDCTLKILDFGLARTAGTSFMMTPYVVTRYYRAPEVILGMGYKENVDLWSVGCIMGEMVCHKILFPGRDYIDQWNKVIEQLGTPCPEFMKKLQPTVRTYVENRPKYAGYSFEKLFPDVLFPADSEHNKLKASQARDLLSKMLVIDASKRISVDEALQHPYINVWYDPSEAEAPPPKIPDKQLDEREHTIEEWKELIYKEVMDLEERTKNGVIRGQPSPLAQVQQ
Chain of AMPKα1(h) (Q13131 whole entry): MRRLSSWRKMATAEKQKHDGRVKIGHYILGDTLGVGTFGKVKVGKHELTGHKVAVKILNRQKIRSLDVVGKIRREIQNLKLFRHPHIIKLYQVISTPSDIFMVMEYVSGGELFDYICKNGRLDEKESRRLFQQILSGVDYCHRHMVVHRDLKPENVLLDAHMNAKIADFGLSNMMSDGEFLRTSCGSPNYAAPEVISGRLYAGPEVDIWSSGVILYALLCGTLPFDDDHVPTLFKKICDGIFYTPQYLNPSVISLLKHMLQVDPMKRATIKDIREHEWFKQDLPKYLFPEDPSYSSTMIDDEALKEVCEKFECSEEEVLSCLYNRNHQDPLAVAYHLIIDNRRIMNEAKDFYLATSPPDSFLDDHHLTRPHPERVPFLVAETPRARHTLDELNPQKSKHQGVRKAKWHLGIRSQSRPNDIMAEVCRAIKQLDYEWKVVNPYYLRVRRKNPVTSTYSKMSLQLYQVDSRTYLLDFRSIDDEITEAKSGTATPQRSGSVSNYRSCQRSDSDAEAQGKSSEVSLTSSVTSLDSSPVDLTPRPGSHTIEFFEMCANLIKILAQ
Chain of BTK(h) (Q06187 whole entry): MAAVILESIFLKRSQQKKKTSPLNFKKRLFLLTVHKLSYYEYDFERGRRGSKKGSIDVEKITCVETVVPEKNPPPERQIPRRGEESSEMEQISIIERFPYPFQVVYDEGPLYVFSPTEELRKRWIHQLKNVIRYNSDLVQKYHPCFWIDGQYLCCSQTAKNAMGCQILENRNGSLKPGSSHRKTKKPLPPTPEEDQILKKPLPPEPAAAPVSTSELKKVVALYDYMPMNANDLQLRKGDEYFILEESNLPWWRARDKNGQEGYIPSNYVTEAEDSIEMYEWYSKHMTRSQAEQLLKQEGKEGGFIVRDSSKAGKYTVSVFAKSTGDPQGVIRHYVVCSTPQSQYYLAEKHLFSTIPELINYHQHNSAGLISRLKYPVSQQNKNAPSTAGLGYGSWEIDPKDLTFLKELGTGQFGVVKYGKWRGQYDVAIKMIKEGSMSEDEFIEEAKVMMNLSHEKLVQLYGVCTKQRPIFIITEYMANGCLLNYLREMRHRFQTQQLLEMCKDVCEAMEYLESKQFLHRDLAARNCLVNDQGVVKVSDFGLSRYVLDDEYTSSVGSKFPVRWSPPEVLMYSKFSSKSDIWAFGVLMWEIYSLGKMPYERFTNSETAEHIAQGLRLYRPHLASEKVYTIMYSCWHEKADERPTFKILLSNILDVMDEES
Chain of GSK3α(h) (P49840 whole entry): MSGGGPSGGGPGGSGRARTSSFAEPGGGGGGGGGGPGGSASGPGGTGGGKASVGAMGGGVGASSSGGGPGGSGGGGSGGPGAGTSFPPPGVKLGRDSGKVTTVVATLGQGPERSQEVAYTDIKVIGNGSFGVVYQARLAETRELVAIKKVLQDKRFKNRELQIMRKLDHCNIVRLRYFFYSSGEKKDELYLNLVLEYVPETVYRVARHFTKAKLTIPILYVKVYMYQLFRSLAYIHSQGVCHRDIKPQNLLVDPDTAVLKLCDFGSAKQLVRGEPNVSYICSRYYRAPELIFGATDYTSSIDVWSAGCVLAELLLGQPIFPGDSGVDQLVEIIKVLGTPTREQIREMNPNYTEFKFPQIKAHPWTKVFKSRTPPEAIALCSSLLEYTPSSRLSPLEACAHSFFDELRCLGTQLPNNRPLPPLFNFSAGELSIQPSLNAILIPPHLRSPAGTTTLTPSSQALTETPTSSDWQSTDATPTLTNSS

Regarding KAFAKLAARLYRKALARQLGVAA [MMI-0400], the “% activity, 100 µM” value was found to be 150% in the test with Aurora-B(h); 94% with BTK(h); 75% with MSSK1(h); 36% with DAPK1(h); 54% in the test with CHK2(h); 37% in the test with Txk(h). Besides, the “% activity, 100 µM” value with MKK7β(h) amounted to 94%; with JNK1α1(h), 98%; with GSK3α(h), 164%; in the test with Met(M1268T)(h), 265%; with SAPK4(h) it was 91%; in the test with Aurora-A(h) it was 119%. The figures for the “% activity, 100 µM” value in the test with EphA1(h), with AMPKα1(h) and with Yes(h) were 61%, 87% and 14%, respectively.
As to FAKLAARLYRKALARQLGVAA [MMI-0300], the “% activity, 100 µM” value with Aurora-B(h) came out at 128%; in the test with BTK(h) it was 102%; with MSSK1(h) it was 77%; in the test with DAPK1(h) it was 46%; with CHK2(h), 66%; with Txk(h), 48%. For the same molecule, the “% activity, 100 µM” value amounted to 100% in the test with MKK7β(h); 97% with JNK1α1(h); 157% with GSK3α(h); 255% with Met(M1268T)(h); 96% with SAPK4(h); 92% with Aurora-A(h). The “% activity, 100 µM” value in the test with EphA1(h) was found to be 73%; with AMPKα1(h), 71%; with Yes(h) it was 67%.

The values are drawn from patent US20140072613A1 (published 2014).
